Experimental data reported in publication PMC3412365 (The Journal of neuroscience : the official journal of the …, 2011).

T1: RGS9-2 (mouse (endogenous in striatum), UniProt O54828-1 1-675)
T1 sequence (looked up): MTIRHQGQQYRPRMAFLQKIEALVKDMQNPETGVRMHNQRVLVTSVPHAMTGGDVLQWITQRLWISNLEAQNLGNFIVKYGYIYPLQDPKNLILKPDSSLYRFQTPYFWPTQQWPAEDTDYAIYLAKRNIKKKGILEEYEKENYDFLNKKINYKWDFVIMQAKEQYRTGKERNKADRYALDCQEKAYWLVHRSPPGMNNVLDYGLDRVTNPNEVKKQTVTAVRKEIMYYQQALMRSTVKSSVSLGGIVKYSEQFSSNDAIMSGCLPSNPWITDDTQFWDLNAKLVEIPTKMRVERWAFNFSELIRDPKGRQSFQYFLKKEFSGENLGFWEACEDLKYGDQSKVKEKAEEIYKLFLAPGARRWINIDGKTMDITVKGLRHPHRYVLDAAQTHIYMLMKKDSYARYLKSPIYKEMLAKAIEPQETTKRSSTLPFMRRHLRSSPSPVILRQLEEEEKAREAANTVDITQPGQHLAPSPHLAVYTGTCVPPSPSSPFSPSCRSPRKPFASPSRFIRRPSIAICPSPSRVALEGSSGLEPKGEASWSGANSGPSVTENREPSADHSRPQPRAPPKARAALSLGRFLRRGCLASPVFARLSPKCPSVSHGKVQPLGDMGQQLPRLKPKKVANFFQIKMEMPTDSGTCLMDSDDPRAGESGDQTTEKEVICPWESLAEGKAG


Biological target: T1, RGS9-2
Assay: co-IP

Binder | co-IP signal after chronic morphine, % compared with vehicle-treated mice
Gαq (natural protein, mouse (endogenous in striatum), UniProt P21279 1-359, looked up) MTLESIMACCLSEEAKEARRINDEIERQLRRDKRDARRELKLLLLGTGESGKSTFIKQMRIIHGSGYSDEDKRGFTKLVYQNIFTAMQAMIRAMDTLKIPYKYEHNKAHAQLVREVDVEKVSAFENPYVDAIKSLWNDPGIQECYDRRREYQLSDSTKYYLNDLDRVADPSYLPTQQDVLRVRVPTTGIIEYPFDLQSVIFRMVDVGGQRSERRKWIHCFENVTSIMFLVALSEYDQVLVESDNENRMEESKALFRTIITYPWFQNSSVILFLNKKDLLEEKIMYSHLVDYFPEYDGPQRDAQAAREFILKMFVDLNPDSDKIIYSHFTCATDTENIRFVFAAVKDTILQLNLKEYNLV | 216%
Gβ5 (natural protein, mouse (endogenous in striatum), UniProt P62881-2 1-353, looked up) MATDGLHENETLASLKSEAESLKGKLEEERAKLHDVELHQVAERVEALGQFVMKTRRTLKGHGNKVLCMDWCKDKRRIVSSSQDGKVIVWDSFTTNKEHAVTMPCTWVMACAYAPSGCAIACGGLDNKCSVYPLTFDKNENMAAKKKSVAMHTNYLSACSFTNSDMQILTASGDGTCALWDVESGQLLQSFHGHGADVLCLDLAPSETGNTFVSGGCDKKAMVWDMRSGQCVQAFETHESDVNSVRYYPSGDAFASGSDDATCRLYDLRADREVAIYSKESIIFGASSVDFSLSGRLLFAGYNDYTINVWDVLKGSRVSILFGHENRVSTLRVSPDGTAFCSGSWDHTLRVWA | 171%
